Patent publication US20100209436

What was measured:
[1] = tested on: human OPA1 splice variant 7
[2] = tested on: human OPA1 splice variant 4
[3] = tested on: human OPA1 splice variant 8 (A210V polymorphism)
Chain of human OPA1 splice variant 8 (A210V polymorphism) (chain, as listed by the source A210V): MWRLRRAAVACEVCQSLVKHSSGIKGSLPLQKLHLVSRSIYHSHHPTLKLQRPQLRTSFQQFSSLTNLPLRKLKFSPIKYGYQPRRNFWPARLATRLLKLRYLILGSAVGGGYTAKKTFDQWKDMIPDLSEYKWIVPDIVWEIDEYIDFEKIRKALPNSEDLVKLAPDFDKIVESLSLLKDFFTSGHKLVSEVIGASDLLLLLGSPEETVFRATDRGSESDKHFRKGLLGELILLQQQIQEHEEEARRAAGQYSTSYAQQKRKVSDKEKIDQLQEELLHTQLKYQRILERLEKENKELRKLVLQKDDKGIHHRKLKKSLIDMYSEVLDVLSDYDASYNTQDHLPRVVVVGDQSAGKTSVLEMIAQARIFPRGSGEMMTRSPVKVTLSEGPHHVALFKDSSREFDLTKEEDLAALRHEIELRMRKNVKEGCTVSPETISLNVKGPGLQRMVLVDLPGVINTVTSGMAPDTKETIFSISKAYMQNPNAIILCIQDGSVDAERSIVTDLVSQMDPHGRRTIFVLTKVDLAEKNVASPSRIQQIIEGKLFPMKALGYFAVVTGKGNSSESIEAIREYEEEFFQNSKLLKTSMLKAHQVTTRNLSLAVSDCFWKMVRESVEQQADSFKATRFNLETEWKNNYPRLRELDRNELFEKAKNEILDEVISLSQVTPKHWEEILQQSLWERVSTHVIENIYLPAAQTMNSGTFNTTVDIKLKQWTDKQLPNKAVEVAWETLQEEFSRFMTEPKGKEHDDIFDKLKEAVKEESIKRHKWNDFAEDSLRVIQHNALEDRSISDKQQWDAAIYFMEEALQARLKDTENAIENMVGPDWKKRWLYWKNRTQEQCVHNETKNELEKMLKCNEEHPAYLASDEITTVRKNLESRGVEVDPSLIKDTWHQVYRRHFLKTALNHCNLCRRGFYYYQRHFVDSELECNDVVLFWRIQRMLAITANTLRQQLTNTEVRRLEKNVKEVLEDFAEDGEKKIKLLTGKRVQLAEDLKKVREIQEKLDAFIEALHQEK

Chain of human OPA1 splice variant 7 (chain, as listed by the source mutant): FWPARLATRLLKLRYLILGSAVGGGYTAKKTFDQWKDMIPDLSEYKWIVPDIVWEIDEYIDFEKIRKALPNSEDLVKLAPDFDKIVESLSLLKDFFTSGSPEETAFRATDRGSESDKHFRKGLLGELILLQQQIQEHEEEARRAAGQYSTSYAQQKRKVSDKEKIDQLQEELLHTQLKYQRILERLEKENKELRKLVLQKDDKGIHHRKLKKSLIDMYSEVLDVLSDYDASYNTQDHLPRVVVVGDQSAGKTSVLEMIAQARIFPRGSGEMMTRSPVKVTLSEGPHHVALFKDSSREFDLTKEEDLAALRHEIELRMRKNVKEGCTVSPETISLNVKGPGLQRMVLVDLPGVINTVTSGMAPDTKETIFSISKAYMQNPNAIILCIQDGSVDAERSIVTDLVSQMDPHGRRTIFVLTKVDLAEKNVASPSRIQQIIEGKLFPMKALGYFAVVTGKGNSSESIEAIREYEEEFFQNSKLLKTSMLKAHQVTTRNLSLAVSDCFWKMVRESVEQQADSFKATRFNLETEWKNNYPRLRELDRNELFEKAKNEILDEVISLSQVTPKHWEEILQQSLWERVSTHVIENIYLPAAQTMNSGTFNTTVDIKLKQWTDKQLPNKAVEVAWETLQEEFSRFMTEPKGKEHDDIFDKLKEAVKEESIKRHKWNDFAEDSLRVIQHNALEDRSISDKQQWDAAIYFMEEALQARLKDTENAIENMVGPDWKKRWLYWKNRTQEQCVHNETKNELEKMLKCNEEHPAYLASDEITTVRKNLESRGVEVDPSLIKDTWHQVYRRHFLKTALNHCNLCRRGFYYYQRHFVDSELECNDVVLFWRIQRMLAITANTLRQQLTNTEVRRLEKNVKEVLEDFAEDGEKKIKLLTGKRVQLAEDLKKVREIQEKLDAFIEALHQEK
Chain of human OPA1 splice variant 4 (chain, as listed by the source mutant): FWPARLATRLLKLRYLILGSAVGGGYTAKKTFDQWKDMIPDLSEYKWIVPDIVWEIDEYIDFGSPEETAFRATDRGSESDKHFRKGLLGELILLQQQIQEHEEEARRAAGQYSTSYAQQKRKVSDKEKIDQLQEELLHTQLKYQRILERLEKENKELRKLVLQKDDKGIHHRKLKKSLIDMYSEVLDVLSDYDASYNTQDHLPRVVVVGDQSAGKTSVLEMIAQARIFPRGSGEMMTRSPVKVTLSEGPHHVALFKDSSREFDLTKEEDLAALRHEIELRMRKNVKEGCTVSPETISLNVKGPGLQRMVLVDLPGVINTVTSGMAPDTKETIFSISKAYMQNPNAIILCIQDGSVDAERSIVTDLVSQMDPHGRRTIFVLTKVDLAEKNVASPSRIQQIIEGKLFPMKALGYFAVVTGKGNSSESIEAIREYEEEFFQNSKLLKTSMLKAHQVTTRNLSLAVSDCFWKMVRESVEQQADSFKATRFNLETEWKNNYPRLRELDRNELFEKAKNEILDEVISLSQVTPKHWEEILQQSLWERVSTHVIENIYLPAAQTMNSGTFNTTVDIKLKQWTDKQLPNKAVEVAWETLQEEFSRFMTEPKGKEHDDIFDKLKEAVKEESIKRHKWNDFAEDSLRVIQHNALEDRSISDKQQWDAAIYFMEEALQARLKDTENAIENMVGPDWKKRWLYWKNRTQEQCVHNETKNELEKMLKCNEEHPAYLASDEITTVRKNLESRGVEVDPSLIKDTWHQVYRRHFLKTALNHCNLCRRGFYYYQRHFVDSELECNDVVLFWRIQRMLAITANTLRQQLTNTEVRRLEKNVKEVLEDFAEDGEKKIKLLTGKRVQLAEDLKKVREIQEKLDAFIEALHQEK

Substance | OPA1 processing (western blot, Δyta10Δyta12 yeast) [1] | OPA1 processing (western blot, Δyta10Δyta12 yeast) [2] | OPA1 processing (western blot, Δyta10Δyta12 yeast) [3]
Afg3l1^E567Q/paraplegin^E575Q complex (murine, both subunits proteolytically inactive) | small OPA1 isoforms were not detected when both, Afg 3l1 and paraplegin, or Afg 3l2 and paraplegin, contained point mutations in their proteolytic centres | – | –
Afg3l2^E574Q/paraplegin^E575Q complex (murine, both subunits proteolytically inactive) | small OPA1 isoforms were not detected when both, Afg 3l1 and paraplegin, or Afg 3l2 and paraplegin, contained point mutations in their proteolytic centres | – | –
hetero-oligomeric Afg3l1^E567Q/paraplegin complex (murine) | Slight OPA1 processing, in particular formation of S3, was detectable with both the Afg3l2^E567Q/paraplegin complex and the Afg3l1^E567Q/paraplegin complex | splice variant 4 was processed only to a very minor extent by the Afg3l2^E567Q/paraplegin complex but not by the Afg3l1^E567Q/paraplegin complex | A similar dependency was observed for splice variant 8
hetero-oligomeric Afg3l2^E574Q/paraplegin complex (murine) | Slight OPA1 processing, in particular formation of S3, was detectable with both the Afg3l2^E567Q/paraplegin complex and the Afg3l1^E567Q/paraplegin complex | splice variant 4 was processed only to a very minor extent by the Afg3l2^E567Q/paraplegin complex | A similar dependency was observed for splice variant 8
homo-oligomeric murine Afg3l2 complex (Yta10 (1-61)-Afg3l2 (36-802)-HA) | expression of each of the murine subunits, Afg3l2 or Afg3l1, in Δyta10Δyta12 cells promoted OPA1 processing; expression of Afg3l2 preferentially led to the formation of the S3 isoform | Afg3l1 and Afg3l2 complexes mediated processing of OPA1 splice variants 4 and 8 in a similar manner | Afg3l1 and Afg3l2 complexes mediated processing of OPA1 splice variants 4 and 8 in a similar manner
proteolytically inactive murine Afg3l1^E567Q (Yta10 (1-61)-Afg3l1^E567Q (25-789)-Myc) | Cleavage was abolished when point mutations were introduced in the proteolytic center of Afg3l1 or Afg3l2. | – | –
proteolytically inactive murine Afg3l2^E574Q (Yta10 (1-61)-Afg3l2^E574Q (36-802)-HA) | Cleavage was abolished when point mutations were introduced in the proteolytic center of Afg3l1 or Afg3l2. | – | –
